# Reference: publication PMC13583000 (Nature Communications, 2026)
# B1: Corynebacterium glutamicum citrate synthase with a C-terminal Strep tag (CgCS-Strep) (enzyme)
# chain: MFERDIVATDNNKAVLHYPGGEFEMDIIEASEGNNGVVLGKMLSETGLITFDPGYVSTGSTESKITYIDGDAGILRYRGYDIADLAENATFNEVSYLLINGELPTPDELHKFNDEIRHHTLLDEDFKSQFNVFPRDAHPMATLASSVNILSTYYQDQLNPLDEAQLDKATVRLMAKVPMLAAYAHRARKGAPYMYPDNSLNARENFLRMMFGYPTEPYEIDPIMVKALDKLLILHADHEQNCSTSTVRMIGSAQANMFVSIAGGINALSGPLHGGANQAVLEMLEDIKSNHGGDATEFMNKVKNKEDGVRLMGFGHRVYKNYDPRAAIVKETAHEILEHLGGDDLLDLAIKLEEIALADDYFISRKLYPNVDFYTGLIYRAMGFPTDFFTVLFAIGRLPGWIAHYREQLGAAGNKINRPRQVYTGNESRKLVPREER
# Biological target: the molecule itself
# Test: SEC
protein,measurement,value
B1,stoichiometry N,2
